Key:
[1] = biological target: T1, human CD70 recombinant protein (human, UniProt P32970 39-193, limits assumed); test: ELISA, IgG titrated on coated human CD70 recombinant protein (2 µg/ml), anti-human Fc-HRP, OD450
T1 construct: May be the same reagent as ACRO CDL-H5246; also called CD70 protein
T1 sequence (looked up): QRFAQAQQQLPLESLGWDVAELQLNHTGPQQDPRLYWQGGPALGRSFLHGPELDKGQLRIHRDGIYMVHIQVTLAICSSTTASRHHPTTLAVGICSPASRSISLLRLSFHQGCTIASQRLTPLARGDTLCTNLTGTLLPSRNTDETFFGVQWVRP
Protocol: (§1) The binding specificity of the CD70 antibodies was tested by ELISA according to a standard protocol. Briefly, 96-well micro-plates were coated with 2 μg/ml of human or cynomolgus CD70 recombinant protein in PBS at 100 μl per well and incubated overnight at 4° C. The plates were washed twice with TBS+0.5% Tween20. 200 μL of blocking buffer (2% BSA in PBS) was added to each well, and the plates were incubated at 37° C. for 2 hours. The plates were washed using the wash buffer mentioned above. Serially diluted antibodies were added to the ELISA plates using 100 μl per well, and the plates were incubated for 1 hour at room temperature. Then plates were washed 3 times. HRP conjugated anti-human Fc antibody solution (Sigma, I18885-2ML, diluted with blocking buffer) was added to the plates using 100 μl per well. The plates were incubated at room temperature for 1 hour and then washed 3 times. Then the TMB solution was added to plates using 100 μl per well and the plates were placed at RT for 5-15 mins. Then the stop solution (2M H2SO4) was added using 50 μl per well. The absorbance was measured at A450 and A630.

[2] = biological target: T2, human CD70 expressed on the cell surface of tumor cell lines (human, UniProt P32970 1-193); test: flow cytometry on Raji cells
T2 construct: whole, on cells
T2 sequence (looked up): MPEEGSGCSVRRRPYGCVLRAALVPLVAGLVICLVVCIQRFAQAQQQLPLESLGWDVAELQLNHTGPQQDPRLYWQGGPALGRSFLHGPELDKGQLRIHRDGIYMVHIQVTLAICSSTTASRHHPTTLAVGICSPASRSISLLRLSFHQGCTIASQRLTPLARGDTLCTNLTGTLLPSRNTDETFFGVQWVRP
Protocol: (§2) Binding activity of 2E7 or the isotype control with a target cell line (Raji) or a cell line (MCF-7) that has negligible level of CD70 expression were evaluated by flow cytometry (Beckman, Cytoflex). 3×10⁵ cells per well were seeded on a 96-well V-bottomed plate and incubated with 100 μl of 2E7 in serial dilutions. After 30 min incubation at 4° C., cells were washed twice with PBS, stained with 100 μl of 1:200 diluted PE-conjugated anti-human Fc in FACS buffer (1×PBS containing 1% BSA), then incubated at 4° C. for 30 min. Cells were finally washed two times with PBS and analyzed by flow cytometric analysis.

[3] = biological target: T1, human CD70 recombinant protein; test: ELISA, coated human CD70, IgG titrated
Protocol: as §1

[4] = biological target: T2, human CD70 expressed on the cell …; test: cell-based or functional assay
[5] = biological target: T2, human CD70 expressed on the cell …; test: flow cytometry on Raji cells, PE anti-human Fc, MFI(PE); the text gives this EC50 only as about 19 nM
Protocol: as §2

[6] = biological target: T3, CD70 ECD (antigen immobilized on the CM5 chip) (UniProt P32970 39-193); test: SPR (Biacore T200), CD70 ECD on CM5 chip, IgG as analyte
T3 construct: extracellular domain; also called CD70 antigen
T3 sequence (looked up): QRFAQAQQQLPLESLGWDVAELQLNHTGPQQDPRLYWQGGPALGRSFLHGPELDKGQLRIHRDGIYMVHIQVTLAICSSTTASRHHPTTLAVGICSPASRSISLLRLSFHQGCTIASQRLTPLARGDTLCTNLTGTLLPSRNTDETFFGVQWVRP
Protocol: The immobilization of antigen CD70 ECD was performed at 25° C. with HBS-EP as the running buffer. Sensor chip surface of flow cells 1, 4 were activated by freshly mixed 50 mmol/L N-Hydroxy succinimide (NHS) and 200 mmol/L 1-ethyl-3-(3-dimethylaminopropyl) carbodiimide hydrochloride (EDC) for 420s (10 μL/min). Afterwards, CD70 antigen diluted in 10 mmol/L NaAC (pH 4.5) was injected into flow cell 4 to achieve conjugation of the appropriate Response Unit, while flow cell 1 was set as a blank. After the amine coupling reaction, the remaining active coupling sites on chip surface were blocked by 420s injection of 1 mol/L ethanolamine hydrochloride.
The assay was performed at 25° C. and the running buffer was HBS-EP. Diluted antibodies were injected over the surface of flow cells 1 and 4 during the association phase, followed by injecting running buffer as the dissociation phase. All the data were processed using Biacore T200 Evaluation software version 3.1. Flow cell 1 and a blank injection of buffer in each cycle were used as a double reference for Response Units subtraction. Kinetic data of the interaction between the antibodies and CD70 antigen were obtained through affinity measurement.

[7] = biological target: T2, human CD70 expressed on the cell …; test: flow cytometry on Caki-1 cells, PE anti-human Fc, MFI; same fit as Table 6, which prints it in nM
Protocol: (§3) The lead antibodies were tested for binding to renal carcinoma cells and glioblastoma cells expressing CD70 on the cell surface by flow cytometry. […] U251 cells were cultured with MEM medium containing of 10% FBS and 1% NEAA+1 mM sodium pyruvate. DBTRG-05MG cells were cultured with DMEM medium (Gibco, Cat #C11995500BT) containing of 10% FBS. Each of the lead antibodies and the controls were incubated for 30 mins with the different cell lines (3×10⁵ cells per well) in 0.2 ml FACS buffer (1×PBS with 0.1% BSA) at 4° C. Then, the cells were pelleted, washed, and incubated at 4° C. for 30 mins with 100 μl of 1:200 diluted PE-conjugated anti human Fc (Abcam, Ab98596) in FACS buffer. The cells were pelleted again, washed with PBS, resuspended in FACS buffer and analyzed by flow cytometer (Beckman, CytoFLEX).
(§4) Antibodies 2H8 and 2D2 had slightly higher binding ability to the cell lines than that of antibody 69A7.

[8] = biological target: T2, human CD70 expressed on the cell …; test: flow cytometry on Caki-1 cells
Protocol: as §3, §4

[9] = biological target: T2, human CD70 expressed on the cell …; test: flow cytometry on DBTRG-05MG cells, PE anti-human Fc, MFI; same fit as Table 6, which prints it in nM
Protocol: as §3, §4

[10] = biological target: T2, human CD70 expressed on the cell …; test: flow cytometry on DBTRG-05MG cells
Protocol: as §3, §4

EC50 [1]: 0.0161 µg/mL | EC50 [2]: ~19 nM | EC50 ratio against antibody 69A7 [3]: 1.5 times | Internalization rate (%) on 786-O [4]: 62% | Internalization rate (%) on Caki-1 [4]: 51% | EC50 [5]: 2.98 µg/mL | Kd [6]: 14 nM | koff [6]: 0.00106 s⁻¹ | kon [6]: 75400 M⁻¹ s⁻¹ | EC50 [7]: 0.421 µg/mL | EC50 [8]: 2.81 nM | EC50 [9]: 0.917 µg/mL | EC50 [10]: 6.11 nM
B1: 2E7, full IgG (antibody, V domains shown)
VH: QVQLQESGPGLVKPSETLSLTCTVSGGSVSSDYYYWSWIRQPPGKGLEWLGYIYYSGSTNYNPSLKSRVTISVDTSKNQFSLKLRSVTTADTAVYYCARGDGDFLGVCFDYWGQGTLVTVSS
VL: EIVLTQSPATLSLSPGERATLSCRASQSVSSYLAWYQQKPGQAPRLLIFDASNRATGIPARFSGSGSGTDFTLTISSLEPEDFAVYYCQQRSNWPLTFGGGTKVEIK

Source: US20250066490A1 (PROFOUNDBIO US, published 2025)
